Experimental findings from US20240368233A1 (University of Washington, published 2024) are described below.

Data set [1] deals with the molecule itself. Kind of data set: SEC titration of the protomer alone at several injection concentrations (Superdex 200, normalised A230); self-association.
In the next data set the target is T1, DF284B.
T1 construct: Bivalent connector
T1 chain: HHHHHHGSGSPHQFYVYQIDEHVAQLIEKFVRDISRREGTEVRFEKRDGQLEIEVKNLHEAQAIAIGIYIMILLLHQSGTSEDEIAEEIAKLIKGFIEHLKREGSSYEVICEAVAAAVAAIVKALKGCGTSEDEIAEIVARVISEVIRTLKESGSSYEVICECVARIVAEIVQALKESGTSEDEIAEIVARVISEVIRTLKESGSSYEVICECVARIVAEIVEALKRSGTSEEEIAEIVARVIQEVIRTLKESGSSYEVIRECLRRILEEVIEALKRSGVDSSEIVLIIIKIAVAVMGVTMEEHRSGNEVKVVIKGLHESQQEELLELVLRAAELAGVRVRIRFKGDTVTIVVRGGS
The data set can be described thus: SEC of mixed components; trimer listed in Table 6.

Another data set has as its target T2, 101B82.
T2 chain: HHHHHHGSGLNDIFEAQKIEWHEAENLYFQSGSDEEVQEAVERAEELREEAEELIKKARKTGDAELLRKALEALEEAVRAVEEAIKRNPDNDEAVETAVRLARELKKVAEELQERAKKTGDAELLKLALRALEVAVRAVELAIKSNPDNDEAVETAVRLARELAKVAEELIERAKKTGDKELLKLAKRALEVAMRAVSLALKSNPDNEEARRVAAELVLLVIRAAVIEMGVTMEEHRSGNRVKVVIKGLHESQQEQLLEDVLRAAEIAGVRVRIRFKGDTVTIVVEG
Kind of data set: SEC binding assay (Superdex 200, normalised A230) of A, B and the mixture AB.

The target in a further data set is T3, 101B62.
T3 construct: also called LHD101B62
T3 chain: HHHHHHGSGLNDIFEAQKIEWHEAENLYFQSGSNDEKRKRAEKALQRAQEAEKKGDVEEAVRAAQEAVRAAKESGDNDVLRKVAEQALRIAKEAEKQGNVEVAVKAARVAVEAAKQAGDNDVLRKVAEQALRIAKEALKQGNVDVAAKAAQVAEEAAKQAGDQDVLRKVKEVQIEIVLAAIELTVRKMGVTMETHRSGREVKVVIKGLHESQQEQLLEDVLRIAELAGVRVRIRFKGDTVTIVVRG
The description is as above.

Another data set addresses T4, LHD101 B8.
T4 single chain, LHD101 chain B fused to DHR8: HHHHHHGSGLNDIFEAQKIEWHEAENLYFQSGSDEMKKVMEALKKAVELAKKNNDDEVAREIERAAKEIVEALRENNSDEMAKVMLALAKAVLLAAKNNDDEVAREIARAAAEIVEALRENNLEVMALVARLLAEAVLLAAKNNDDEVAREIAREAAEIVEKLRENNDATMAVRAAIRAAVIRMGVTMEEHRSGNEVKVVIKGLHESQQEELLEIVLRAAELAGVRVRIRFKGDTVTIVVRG
The data set is described as above.

The target in a further data set is T5, 101B14.
T5 construct: also called LHD101 B14
T5 single chain, LHD101 chain B fused to DHR14: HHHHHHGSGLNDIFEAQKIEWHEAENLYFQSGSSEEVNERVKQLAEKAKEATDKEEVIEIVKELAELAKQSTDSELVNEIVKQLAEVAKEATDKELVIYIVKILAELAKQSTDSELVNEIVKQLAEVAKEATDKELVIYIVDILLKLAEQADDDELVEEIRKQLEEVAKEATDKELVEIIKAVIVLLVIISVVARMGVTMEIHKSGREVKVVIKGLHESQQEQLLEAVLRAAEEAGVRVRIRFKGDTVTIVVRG
The data set is described as above.

Data set [2] deals with T6, LHD206 chainB.
T6 construct: also called LHD206B
T6 chain: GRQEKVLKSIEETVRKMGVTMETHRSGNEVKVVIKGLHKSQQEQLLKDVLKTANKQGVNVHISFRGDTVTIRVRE
Kind of data set: BLI, global kinetic fit, 1:1 model. The procedure: (§1) Biolayer interferometry experiments were performed on an OctetRED96 BLI system (ForteBio, Menlo Park, CA). Streptavidin coated biosensors were first equilibrated for at least 10 minutes in Octet buffer (10 mM HEPES pH 7.4, 150 mM NaCl, 3 mM EDTA, 0.05% Surfactant P20) supplemented with 1 mg/ml Bovine Serum Albumin (SigmaAldrich). Enzymatically biotinylated designs were immobilized onto the biosensors by dipping the biosensors into a solution with 10-50 nM protein for 30-120 s. This was followed by dipping in fresh octet buffer to establish a baseline for 120 s. Titration experiments were performed at 25° C. while rotating at 1,000 r.p.m. Association of designs was allowed by dipping biosensors in solutions containing designed protein diluted in octet buffer until equilibrium was approached followed by dissociation by dipping the biosensors into fresh buffer solution in order to monitor the dissociation kinetics. Steady-state and global kinetic fits were performed using the manufacturer's software (Data Analysis 9.1) assuming a 1:1 binding model.
For orientation: Biolayer interferometry detects binding as a change in optical thickness at a sensor tip.

Data set [3] addresses T6, LHD206 chainB. The data set can be described thus: BLI, steady state fit. The method, then: as §1
The target in a further data set is T7, DFA0.
T7 construct: Bivalent connector
T7 chain: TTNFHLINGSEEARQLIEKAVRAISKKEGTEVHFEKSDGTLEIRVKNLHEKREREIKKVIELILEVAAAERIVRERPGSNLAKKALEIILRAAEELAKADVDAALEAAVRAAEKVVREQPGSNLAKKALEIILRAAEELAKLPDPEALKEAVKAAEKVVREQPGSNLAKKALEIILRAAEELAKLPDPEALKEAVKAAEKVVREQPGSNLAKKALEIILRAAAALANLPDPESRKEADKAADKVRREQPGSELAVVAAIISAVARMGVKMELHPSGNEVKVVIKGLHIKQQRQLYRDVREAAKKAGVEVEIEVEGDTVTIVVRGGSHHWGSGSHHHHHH
Kind of data set: SEC of mixed components; trimer listed in Table 6.

The target of a further data set is T8, 202B57.
T8 chain: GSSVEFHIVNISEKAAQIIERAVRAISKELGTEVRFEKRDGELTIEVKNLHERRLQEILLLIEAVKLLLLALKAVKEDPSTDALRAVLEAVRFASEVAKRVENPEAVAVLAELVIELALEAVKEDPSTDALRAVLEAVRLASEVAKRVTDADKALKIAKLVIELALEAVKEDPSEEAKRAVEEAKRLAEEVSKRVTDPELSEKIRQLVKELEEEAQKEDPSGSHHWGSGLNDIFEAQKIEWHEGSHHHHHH
The data set can be described thus: SEC of mixed components; linear tetramer listed in Table 6, neighbours in the chain. The method, then:
Complexes and individual components were diluted in 20 mM Tris pH 8.0, 100 mM NaCl. After o/n equilibration of the mixtures at room temperature or 4 degrees C., 500 ul of sample was injected onto a Superdex™ 200 10/300 increase GL (dimers, linear assemblies) or Superose™ 6 increase 10/300 GL (symmetric assemblies) (all columns from GE healthcare) using the absorbance at 230 nm or 473 nm (for GFP tagged components) as read-out. Dimers were mixed at monomer concentrations of 5 μM or higher. Trimer and ABCD tetramer mixtures contained 5 μM of the bivalent connector, and 7.5 μM of each terminal cap (lower absolute concentrations with the same ratios were used for some trimers). ABCA tetramer mixtures contained 5 μM per bivalent connector and 15 μM terminal cap. The hexamer mixture contained 3 μM of components C and D, 3.6 μM of B and E, and 4.4 μM of A and F. The branched assembly shown in FIG. 4A contained 2.8 μM of the trivalent connector and 4 μM of each cap. For the exchange experiment shown in FIG. 5A, the ABC trimer was preincubated at concentrations of 6 μM B and 9 μM each of A and C. C′ was then added to reach a final concentration of 2 μM B, 3 μM each of A and C, and 6 μM C′.

Broadly, the Kd is a measure of binding affinity in units of concentration. A word on the koff: it is the first-order rate constant of dissociation. High values mean fast dissociation, low ones slow dissociation. In general, kon refers to a measure of how fast the partners come together. The low end stands for slower complex formation, the high end for faster complex formation.

B1: 101A53 (designed binder)
chain: HHHHHHGSGLNDIFEAQKIEWHEAENLYFQSGSNDEKEKLKELLKRAEELAKSPDPEDLKEAVRLAEEVVRERPGSNLAKKALEIILRAAEELAKLPDPEALKEAVKAAEKVVREQPGSNLAKKALEIILRAAAALANLPDPESRKEADKAADKVRREQPGSELAVVAAIISAVARMGVKMELHPSGNEVKVVIKGLHIKQQRQLYRDVREAAKKAGVEVEIEVEGDTVTIVVRG
notes: also called LHD101A53
With B1, the binding result in [1] is reported as “no binding”; with DF284B, “binds”; in the data set with 101B82, “binds”; with 101B62 it was “binds”; in the data set with LHD101 B8 it was “binds”; in the data set with 101B14 it was “binds”.

B2: LHD206 chainA (designed binder)
chain: TDELLERLRQLFEELHERGTEIVVEVHINGRKTEIEVQGIDKRLLKIILEVIREEIEREGSSEVEVNVHSGGQTWTFNEK
notes: also called LHD206A
On to B2, for which, in the data set with LHD206 chainB [2], the dissociation constant (Kd) turned out to be 2.8 nM, the off-rate (koff) is 0.00075 s⁻¹ and the kon came to 270000 M⁻¹ s⁻¹. Also, in the data set with LHD206 chainB [3], the Kd was determined as 8.4 nM.

B3: DF202 (designed binder)
chain: NTHFIVVHGTEEARQLAEEIVRLIAEALGTEVRFEKKDGLLSIEVKNLPEEAQRLIQKLLQLAVRIAQAAKSGDNDQLRELAEDALRLAKEAEKLGDLGAAAVAARLAVEAAKQAGDNDVLRKVAEQALRIAKEAEKQGLVDVAVEAARVAVEAAKQAGDNDVLRKVAEQALRIAKEAEKQGNVEVAVKAARVAVEAAKQAGDNDVLRKVAEQALRIVREALKQGNKEVAKKALEVAIEAANQAGDQKLLAEILLLAIEVLVVEMGVTMETHKSGNKVKVVIKGLHESQQETLRKLVHELLRKLGVVAVTQKHGDTVTIYVTEGGSHHWGSGSHHHHHH
notes: Bivalent connector
As for B3, the binding result with DFA0 and in the data set with 202B57 was “binds” each time.
